Data reported in patent US20220089741A1 (HUABO BIOPHARM SHANGHAI, published 2022).

Key:
[1] = target: human PD-L1 protein (hybridoma screening) (human, UniProt Q9NZQ7 19-239, limits assumed); assay: SPR, hybridoma monoclone
[2] = target: T1, rhPD-L1-his protein (monkey, UniProt G7PSE7 19-238); assay: ELISA, rhPD-L1-his coated
T1 construct: Bought protein; also called monkey PD-L1 protein; Sino Biological #90251-C08H; not shown: C-terminal His tag

[3] = target: T2, huPD-L1-his protein (human, UniProt Q9NZQ7 19-239); assay: ELISA, huPD-L1-his coated at 1 ug/ml
T2 construct: Bought protein; also called human PD-L1-His protein; human PD-L1 protein; not shown: His tag
T2 sequence (Q9NZQ7 19-239 limits assumed): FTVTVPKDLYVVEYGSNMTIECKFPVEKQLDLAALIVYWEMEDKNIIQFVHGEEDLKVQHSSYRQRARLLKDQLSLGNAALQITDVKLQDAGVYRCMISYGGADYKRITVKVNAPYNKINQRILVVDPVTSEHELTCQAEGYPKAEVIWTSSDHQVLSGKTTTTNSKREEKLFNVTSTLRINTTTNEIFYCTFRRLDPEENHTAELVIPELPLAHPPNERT
Experimental: Specifically, 1 ug/ml huPD-L1-his protein (purchased from Sino Biological, #10084-H08H) was added to the ELISA plate at 50 ul/well, and coated at 2-8° C. for more than 12 hours. The raffinate of plate coating was discarded, 200 ul of 3% milk was added to each well, and blocked at room temperature for 1 hour. PBST not less than 200 uL was added to each well for washing once. The antibody sample to be tested was diluted to 100 ug/ml, then diluted 5 times for 11 gradients, and added to the ELISA plate at 100 uL/well. After incubation at room temperature for 1 hour, PBST no less than 200 uL was added to each well. After washing for 4 times, HRP-conjugated Rabbit Anti-Human IgG Fc Antibody (Luoyang Baiaotong Experimental Material Center, #C030222) diluted 25000 times with 3% milk-PBST was added as 100 uL/well. After incubating at room temperature for 1 hour, PBST not less than 200 uL was added to each well, washed 6 times and beat dry. 100 uL of TMB Substrate was added to each well. After 5 minutes of reaction at room temperature, 50 uL/well of 2M H2504 was added to terminate the reaction. The ELISA plate with stopped reaction was placed on the microplate reader, and the absorbance of OD450 value was read at 450 nm wavelength.

[4] = target: T3, huPD-L1-moFc (human, UniProt Q9NZQ7 19-238, limits assumed); assay: flow cytometry competition: blocking of huPD-L1-moFc binding to cells expressing human PD-1
T3 construct: also called 800023, Huabo Bio; not shown: mouse Fc
T3 sequence (Q9NZQ7 19-238 limits assumed): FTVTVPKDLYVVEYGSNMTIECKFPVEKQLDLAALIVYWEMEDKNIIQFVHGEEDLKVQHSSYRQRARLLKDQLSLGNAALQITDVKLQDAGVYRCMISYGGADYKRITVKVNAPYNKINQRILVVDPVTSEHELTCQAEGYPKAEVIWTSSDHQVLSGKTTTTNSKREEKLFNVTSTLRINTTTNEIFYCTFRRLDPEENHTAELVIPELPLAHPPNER
Experimental: The suspension of cells (3C2-huPD-1-6F4, Huabo Bio) expressing human PD-1 in the logarithmic growth phase was centrifuged (1000 rpm×5 min) to discard the culture medium, and the cells were resuspended with 1% BSA/PBS to a living cell density of 1×10⁶/ml. […] The reacted 96-well U-shaped plate was resuspended with 1% BSA/PBS, centrifuged (300 g×3 min) to discard the supernatant, and washed like this for twice. […] The reacted 96-well U-shaped plate was resuspended with 1% BSA/PBS, centrifuged (300 g×3 min) to discard the supernatant, and washed like this for three times. Finally, the plate was resuspended with 100 uL of 1% BSA/PBS for each well and the fluorescence intensity of the first channel was detected by flow cytometry (BD, #Accuri C6).

[5] = target: T2, huPD-L1-his protein; assay: SPR (Biacore 8K), antibody captured on anti-human capture CM5 chip, huPD-L1 as analyte, 1:1 model
Experimental: In this experiment, SPR method was used to determine antibody-antigen binding kinetics and affinity.
Anti-Human Capture-CM5 chip (GE, #BR-1005-30) was prepared according to the coupling method of Human Antibody Captrue Kit (GE, #BR-1008-39) and Amino Coupling Kit (GE, BR-1000-50). The chip was balanced at room temperature for 20-30 min, and loaded into a Biacore 8K instrument. B5D1 was diluted to the experimental working concentration with equilibration buffer. The antigen was diluted to 50 nM with equilibration buffer, then diluted 3 times for 7 concentration gradients, and 2 zero concentrations (i.e. equilibration buffer) and 1 repeated concentration (generally is a repeat of lowest concentration) were set. In the order of antibody, antigen huPD-L1 (Sino Biological, #10084-H08H), and regeneration, 10 antigen concentrations (2 zero concentrations, 7 gradient concentrations, and 1 repeat concentration) were cyclically subjected to experimental analysis. The antigen injection flow rate was 30 uL/min, the binding time was 120 seconds, and the dissociation time was 600 seconds.

T1 sequence (G7PSE7 entry or part of it limits assumed): as the sequence (Q9NZQ7 19-238 limits assumed) above, with A33T, A34S, S62N, R68Q, Q82R, F173L, T185A, T192I, H215L counted along it
Sequence of human PD-L1 protein (hybridoma screening) (Q9NZQ7 19-239 limits assumed): as the sequence (Q9NZQ7 19-239 limits assumed) above

B1: 36C06-D8 (antibody, V domains shown)
VH: QVQLQQSGAELVKPGASVKLSCKASGYAFTGYTIHWVKQRSGLGLEWLGWFYPGSGTLKYNEKFKDKATLTADKSSSTVYLELSRLTSEDSAVYFCARHGTGTLMAMDYWGQGTSVTVSS
VL: DVVVTQTPLSLPVSFGDQVSISCRSSQSLANSYGNTYLSWYLHKPGQSPQLLIYGISNRFSGVPDRFSGSGSGTDFTLKISTIKPEDLGMYYCLQGTHQPPTFGGGTKLEIK
notes: also called hybridoma 36C06/D8; mouse monoclonal antibody against human PD-L1
**Q.** B1 was tested. Which Kd [1] did it give?
**A.** The Kd was 2.74 nM.

B2: chimeric antibody 900289 (antibody, V domains shown)
VH: B1 VH
VL: B1 VL
notes: Expressed in CHO-S cells; also called chimeric IgG1-kappa antibody; human-mouse chimeric antibody
**Q.** Which EC50 [2] does the source give for B2 here?
**A.** The EC50 was 0.14 µg/mL.

**Q.** And the EC50 [3]?
**A.** Its EC50 is 0.0433 µg/mL.

**Q.** And the IC50 [4]?
**A.** Its IC50 is 0.00199 µg/mL.

**Q.** And the Kd [5]?
**A.** Its Kd is 1.34 nM.

**Q.** What about the koff [5] of the same binder?
**A.** The koff was 0.000312 s⁻¹.

**Q.** And the kon [5]?
**A.** Its kon is 233000 M⁻¹ s⁻¹.

B3: humanized antibody 900339 (antibody, V domains shown)
VH: QVQLVQSGAEVKKPGASVKVSCKASGYAFTGYTIHWVRQAPGQRLEWMGWFYPGSGTLKYSEKFQGRVTITRDKSLSTAYMELSSLRSEDTAVYYCARHGTGTLMAMDYWGQGTLVTVSS
VL: DVVMTQTPLSLSVTPGQPASISCKSSQSLANSYGNTYLSWYLHKPGQSPQLLIYGISNRFSGVPDRFSGSGSGTDFTLKISRVEAEDVGVYYCLQGTHQPPTFGQGTKLEIK
notes: Humanized from the chimeric antibody; Expressed in CHO-S cells; also called humanized PD-L1 monoclonal antibody
**Q.** What does the source list for B3?
**A.** EC50 [2]: 0.115 µg/mL; EC50 [3]: 0.0485 µg/mL; IC50 [4]: 0.00242 µg/mL; Kd [5]: 0.94 nM; koff [5]: 0.000219 s⁻¹; kon [5]: 233000 M⁻¹ s⁻¹
